Measurements published in publication PMC9887757.
pEC50, pKd: −log10 of the molar value.

Columns and labels:
[1] = target: BKPyV VLP genotype III (VP1 virus-like particles) (BK polyomavirus) (UniProt P03088); test: ELISA
[2] = target: BKPyV VLP genotype Ia (VP1 virus-like particles) (BK polyomavirus) (UniProt P03088); test: ELISA
[3] = target: BKPyV VLP genotype IVc2 (VP1 virus-like particles) (BK polyomavirus) (UniProt P03088); test: ELISA
[4] = target: BKPyV VLP genotype II (VP1 virus-like particles) (BK polyomavirus) (UniProt P03088); test: ELISA
Sequence of BKPyV VLP genotype II (VP1 virus-like particles) (BK polyomavirus) (P03088 whole entry, looked up): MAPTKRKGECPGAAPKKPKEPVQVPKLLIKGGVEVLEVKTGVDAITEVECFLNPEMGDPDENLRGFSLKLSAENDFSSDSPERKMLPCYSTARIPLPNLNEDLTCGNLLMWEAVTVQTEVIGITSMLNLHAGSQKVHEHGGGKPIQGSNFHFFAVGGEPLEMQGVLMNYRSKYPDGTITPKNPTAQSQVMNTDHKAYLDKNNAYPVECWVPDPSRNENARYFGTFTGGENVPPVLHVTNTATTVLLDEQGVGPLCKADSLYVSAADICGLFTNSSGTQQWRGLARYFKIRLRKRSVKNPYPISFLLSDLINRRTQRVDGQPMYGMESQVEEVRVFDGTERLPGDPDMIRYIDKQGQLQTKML

[5] = target: BKPyV VLP genotype III (VP1 virus-like particles) (BK polyomavirus) (UniProt P03088); test: SPR; avidity
[6] = target: BKPyV VLP genotype Ia (VP1 virus-like particles) (BK polyomavirus) (UniProt P03088); test: SPR; avidity
[7] = target: BKPyV VLP genotype IVc2 (VP1 virus-like particles) (BK polyomavirus) (UniProt P03088); test: SPR; avidity
[8] = target: BKPyV VLP genotype II (VP1 virus-like particles) (BK polyomavirus) (UniProt P03088); test: SPR; avidity

Sequence of BKPyV VLP genotype III (VP1 virus-like particles) (BK polyomavirus) (P03088 whole entry, looked up): as above
Sequence of BKPyV VLP genotype IVc2 (VP1 virus-like particles) (BK polyomavirus) (P03088 whole entry, looked up): as above
Sequence of BKPyV VLP genotype Ia (VP1 virus-like particles) (BK polyomavirus) (P03088 whole entry): as the sequence (P03088 whole entry, looked up) above

Substance	pEC50 [1]	pEC50 [2]	pEC50 [3]	pEC50 [4]	pKd [5]	pKd [6]	pKd [7]	pKd [8]
antibody 160 (clonotype 160, 41F17-like) (from UniProt P01857)	9.89	9.85	9.85	9.42	9.77	9.64	9.57	9.55
antibody 198 (clonotype 198, 41F17-like) (from UniProt P01857)	9.05	9.27	9.37	8.85	9.96	8.79	9.55	8.64
antibody 120 (clonotype 120, 41F17-like) (from UniProt P01857)	9.62	9.77	9.72	9.59	9.68	9.96	9.07	9.80
